Results taken from US20130184442A1.

How the values were obtained:
Experiment in all cases: SPR (Biacore 2000), antibody immobilized on CM5 chip, Langmuir 1:1 model
[1] = biological target: anti FITC-BSA human IgG1 (monoclonal, BioInvent International AB)
[2] = biological target: anti FITC-BSA mouse IgG2a (monoclonal, BioInvent International AB)
[3] = biological target: polyclonal rabbit IgG

Kd [1]: 20 nM | Kd [2]: 550 nM | Kd [3]: 60 nM
Substance: Zwt (recombinantly produced parental Z domain) (designed binder)
